Source: paper doi:10.1101/2025.11.27.690698 (bioRxiv, 2025)
Substitutions are numbered along the chain they refer to. Names and notes keep the numbering of the source.

B1: human NLRP10 (aa 4-655) (natural protein)
chain: AKARKPREALLWALSDLEENDFKKLKFYLRDMTLSEGQPPLARGELEGLIPVDLAELLISKYGEKEAVKVVLKGLKVMNLLELVDQLSHICLHDYREVYREHVRCLEEWQEAGVNGRYNQVLLVAKPSSESPESLACPFPEQELESVTVEALFDSGEKPSLAPSLVVLQGSAGTGKTTLARKMVLDWATGTLYPGRFDYVFYVSCKEVVLLLESKLEQLLFWCCGDNQAPVTEILRQPERLLFILDGFDELQRPFEEKLKKRGLSPKESLLHLLIRRHTLPTCSLLITTRPLALRNLEPLLKQARHVHILGFSEEERARYFSSYFTDEKQADRAFDIVQKNDILYKACQVPGICWVVCSWLQGQMERGKVVLETPRNSTDIFMAYVSTFLPPDDDGGCSELSRHRVLRSLCSLAAEGIQHQRFLFEEAELRKHNLDGPRLAAFLSSNDYQLGLAIKKFYSFRHISFQDFFHAMSYLVKEDQSRLGKESRREVQRLLEVKEQEGNDEMTLTMQFLLDISKKDSFSNLELKFCFRISPCLAQDLKHFKEQMESMKHNRTWDLEFSLYEAKIKNLVKGIQMNNVSFKIKHSNEKKSQSQNLFSVKSSLSHGPKEEQKCPSVHGQKEGKDNIAGTQKEASTGKGRGTEETPKNTYI
B2: Walker A mutant human NLRP10 (aa 4-655 K179A) (natural protein)
chain: B1 chain with K176A

Target: the molecule itself
Assay: SEC

Row | Protein | binding result
1 | B1 | binds
2 | B2 | binds
